The record followed here is publication PMC2788227 (PLoS ONE, 2009).

The data set concerns the molecule itself. The experiment in a line: SEC.

B1: Francisella tularensis subsp. holarctica LVS 1-deoxy-D-xylulose 5-phosphate reductoisomerase (MEP sy (enzyme)
chain: MFKKTKITILGATGSIGDSTLAVIRETNDFEVFALTAFSNVEKLAELCQEFKPKFAVVPDLSKKQKLQSLVTDVEVLVGESGLEKVSSLAEIDIVMSAIVGIAGLKPTFAAAKAGKKILLANKESLVTAGHLLIDEVVKNNAQLIPVDSEHNAIFQCIDNHDKKCLPEIDKIILTASGGPFRDKQLHELTDVTPEQACNHPNWQMGRKISVDSSTMVNKALEVIEAYWLFSVSADKIGVLIHPQSVTHSIVRYVDGSYIAQLGVPDMKTPIANAMYYPKRGSVNVESLDFTKYQLTFREACFERFEALKIVFNNLQNKNYAANIVFNAANEELVAAFLNKKIKYLEIIEVNKKVTKELNFENPKNIEEVFEIDRKTREYVDSVLG
In general, stoichiometry N refers to a count of units in the complex or per binding partner. Regarding B1, the “stoichiometry N” value worked out at 2.
